Article PMC3086013 (Biochemistry, 2010)

Molecular target: the molecule itself
Experiment: velocity sedimentation on H2O- and D2O-sucrose gradients + SEC

Protein | stoichiometry N [subunits/complex]
seipin-myc13 (yeast seipin fused to 13 tandem copies of the myc epitope) (natural protein, S. cerevisiae, UniProt Q06058 1-285, looked up) MKINVSRPLQFLQWSSYIVVAFLIQLLIILPLSILIYHDFYLRLLPADSSNVVPLNTFNILNGVQFGTKFFQSIKSIPVGTDLPQTIDNGLSQLIPMRDNMEYKLDLNLQLYCQSKTDHLNLDNLLIDVYRGPGPLLGAPGGSNSKDEKIFHTSRPIVCLALTDSMSPQEIEQLGPSRLDVYDEEWLNTIRIEDKISLESSYETISVFLKTEIAQRNLIIHPESGIKFRMNFEQGLRNLMLRKRFLSYIIGISIFHCIICVLFFITGCTAFIFVRKGQEKSKKHS | 9.4
seipin-mCherry (yeast seipin tagged at its carboxy terminus with mCherry) (natural protein, S. cerevisiae, UniProt Q06058 1-285, looked up) MKINVSRPLQFLQWSSYIVVAFLIQLLIILPLSILIYHDFYLRLLPADSSNVVPLNTFNILNGVQFGTKFFQSIKSIPVGTDLPQTIDNGLSQLIPMRDNMEYKLDLNLQLYCQSKTDHLNLDNLLIDVYRGPGPLLGAPGGSNSKDEKIFHTSRPIVCLALTDSMSPQEIEQLGPSRLDVYDEEWLNTIRIEDKISLESSYETISVFLKTEIAQRNLIIHPESGIKFRMNFEQGLRNLMLRKRFLSYIIGISIFHCIICVLFFITGCTAFIFVRKGQEKSKKHS | 8.7
